Key:
[1] = target: Bxy_22780 E350G mutant (nucleophile mutant) (Bacteroides xylanisolvens); experiment: crystal structure
[2] = target: Bxy_22780 wild-type (β-1,2-galactosidase from Bacteroides xylanisolvens, GH35) (Bacteroides xylanisolvens); experiment: crystal structure

stoichiometry N [1] | stoichiometry N [2] | Substance
4 | – | Bxy_22780 E350G mutant (nucleophile mutant) (enzyme)
– | 4 | Bxy_22780 wild-type (β-1,2-galactosidase from Bacteroides xylanisolvens, GH35) (enzyme)

— publication doi:10.1101/2024.05.03.592134
